{"source": "patent US20190375820A1", "about": "(ACCELERON PHARMA, published 2019)", "binders": {"B1": {"name": "ActRIIB-Fc homodimer (Fc fusion)", "chain": "SGRGEAETRECIYYNANWELERTNQSGLERCEGEQDKRLHCYASWRNSSGTIELVKKGCWLDDFNCYDRQECVATEENPQVYFCCCEGNFCNERFTHLPEAGGPEVTYEPPPTAPTLLT", "notes": "also called ActRIIB-Fc homodimeric complex; ActRIIB homodimer; not shown: linker and Fc domain"}, "B2": {"name": "ALK7-Fc homodimer (Fc fusion)", "chain": "LSPGLKCVCLLCDSSNFTCQTEGACWASVMLTNGKEQVIKSCVSLPELNAQVFCHSSNNVTKTECCFTDFCNNITLHLPTASPNAPKLGPME", "notes": "also called ALK7-Fc homodimeric complex; ALK7 homodimer; not shown: linker and Fc domain"}, "B3": {"name": "ActRIIB-Fc:ALK7-Fc heterodimer (Fc fusion)", "chain 1": "GRGEAETRECIYYNANWELERTNQSGLERCEGEQDKRLHCYASWRNSSGTIELVKKGCWLDDFNCYDRQECVATEENPQVYFCCCEGNFCNERFTHLPEAGGPEVTYEPPPTAPTGGGTHTCPPCPAPELLGGPSVFLFPPKPKDTLMISRTPEVTCVVVDVSHEDPEVKFNWYVDGVEVHNAKTKPREEQYNSTYRVVSVLTVLHQDWLNGKEYKCKVSNKALPAPIEKTISKAKGQPREPQVYTLPPSRKEMTKNQVSLTCLVKGFYPSDIAVEWESNGQPENNYKTTPPVLKSDGSFFLYSKLTVDKSRWQQGNVFSCSVMHEALHNHYTQKSLSLSPGK", "chain 2": "GLKCVCLLCDSSNFTCQTEGACWASVMLTNGKEQVIKSCVSLPELNAQVFCHSSNNVTKTECCFTDFCNNITLHLPTASPNAPKLGPMETGGGTHTCPPCPAPELLGGPSVFLFPPKPKDTLMISRTPEVTCVVVDVSHEDPEVKFNWYVDGVEVHNAKTKPREEQYNSTYRVVSVLTVLHQDWLNGKEYKCKVSNKALPAPIEKTISKAKGQPREPQVYTLPPSREEMTKNQVSLTCLVKGFYPSDIAVEWESNGQPENNYDTTPPVLDSDGSFFLYSDLTVDKSRWQQGNVFSCSVMHEALHNHYTQKSLSLSPG", "notes": "The receptor parts are the same in both pairs; only the Fc domains differ; also called ALK7-Fc:ActRIIB-Fc heterodimer; ActRIIB-Fc:ALK7-Fc heterodimeric complex"}}, "key": {"activin AC": {"molecular_target": "T1, activin AC (UniProt P08476 311-426; P55103 237-352)", "T1 sequence (looked up) 1": "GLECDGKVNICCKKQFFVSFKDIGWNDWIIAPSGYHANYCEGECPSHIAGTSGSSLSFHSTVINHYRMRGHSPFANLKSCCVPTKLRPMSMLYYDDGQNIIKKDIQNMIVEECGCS", "T1 sequence (looked up) 2": "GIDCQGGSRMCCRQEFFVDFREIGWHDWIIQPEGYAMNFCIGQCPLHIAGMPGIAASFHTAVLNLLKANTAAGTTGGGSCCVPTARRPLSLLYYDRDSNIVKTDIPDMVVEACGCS", "experiment": "SPR (Biacore); receptor-Fc captured via anti-Fc antibody, ligand injected", "method": "(§1) Ligands were injected and allowed to flow over the captured receptor protein."}, "activin C": {"molecular_target": "T2, activin C (UniProt P55103 237-352)", "T2 sequence (looked up)": "T1 sequence (looked up) 2", "experiment": "SPR (Biacore); receptor-Fc captured via anti-Fc antibody, ligand injected", "method": "as §1"}}}
{"binder": "B1", "values": [{"measurement": "Kd", "setting": "activin AC", "value": 160, "unit": "pM"}, {"measurement": "koff", "setting": "activin AC", "value": 0.0031, "unit": "s⁻¹"}, {"measurement": "kon", "setting": "activin AC", "value": "2e+07", "unit": "M⁻¹ s⁻¹"}]}
{"binder": "B2", "values": [{"measurement": "binding result", "setting": "activin C", "value": "no binding"}]}
{"binder": "B3", "values": [{"measurement": "Kd", "setting": "activin C", "value": 6900, "unit": "pM"}, {"measurement": "koff", "setting": "activin C", "value": 0.0024, "unit": "s⁻¹"}, {"measurement": "kon", "setting": "activin C", "value": 350000, "unit": "M⁻¹ s⁻¹"}, {"measurement": "Kd", "setting": "activin AC", "value": 220, "unit": "pM"}, {"measurement": "koff", "setting": "activin AC", "value": 0.00057, "unit": "s⁻¹"}, {"measurement": "kon", "setting": "activin AC", "value": "2.6e+06", "unit": "M⁻¹ s⁻¹"}]}
